Target: Antp homeodomain (C39S) (fruit fly, UniProt P02833 297-356, C335S)
Assay: 23Na diffusion NMR (Na+ release on complex formation); 1.10 mM protein, 1.52 mM DNA; 14.7 +/- 1.7 Na+ released per complex; sodium succinate buffer (20 mM Na+, 11.3 mM succinate), pH 5.8, 25 C
Conditions: protein: recombinant; blunt

Antp homeodomain (C39S), sequence (P02833 297-356 C335S): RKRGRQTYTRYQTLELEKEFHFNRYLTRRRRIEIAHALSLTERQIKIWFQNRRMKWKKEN

B1: 15-bp DNA duplex with Antp recognition sequence (dsDNA)
DNA 1: AGAAAGCCATTAGAG
DNA 2: CTCTAATGGCTTTCT
binding result: binds

Source: paper PMC8829827, “Dynamics of Cations around DNA and Protein as Revealed by 23Na Diffusion NMR Spectroscopy”
